Results on two molecules are retold here after article PMC11420289, “IBR1, a novel endogenous IFIH1‐binding dsRNA, governs IFIH1 activation and M1 macrophage polarisation in ARDS”.

This series has as its target T1, IFIH1-WT-Flag (UniProt Q8R5F7 1-1025).
T1 sequence: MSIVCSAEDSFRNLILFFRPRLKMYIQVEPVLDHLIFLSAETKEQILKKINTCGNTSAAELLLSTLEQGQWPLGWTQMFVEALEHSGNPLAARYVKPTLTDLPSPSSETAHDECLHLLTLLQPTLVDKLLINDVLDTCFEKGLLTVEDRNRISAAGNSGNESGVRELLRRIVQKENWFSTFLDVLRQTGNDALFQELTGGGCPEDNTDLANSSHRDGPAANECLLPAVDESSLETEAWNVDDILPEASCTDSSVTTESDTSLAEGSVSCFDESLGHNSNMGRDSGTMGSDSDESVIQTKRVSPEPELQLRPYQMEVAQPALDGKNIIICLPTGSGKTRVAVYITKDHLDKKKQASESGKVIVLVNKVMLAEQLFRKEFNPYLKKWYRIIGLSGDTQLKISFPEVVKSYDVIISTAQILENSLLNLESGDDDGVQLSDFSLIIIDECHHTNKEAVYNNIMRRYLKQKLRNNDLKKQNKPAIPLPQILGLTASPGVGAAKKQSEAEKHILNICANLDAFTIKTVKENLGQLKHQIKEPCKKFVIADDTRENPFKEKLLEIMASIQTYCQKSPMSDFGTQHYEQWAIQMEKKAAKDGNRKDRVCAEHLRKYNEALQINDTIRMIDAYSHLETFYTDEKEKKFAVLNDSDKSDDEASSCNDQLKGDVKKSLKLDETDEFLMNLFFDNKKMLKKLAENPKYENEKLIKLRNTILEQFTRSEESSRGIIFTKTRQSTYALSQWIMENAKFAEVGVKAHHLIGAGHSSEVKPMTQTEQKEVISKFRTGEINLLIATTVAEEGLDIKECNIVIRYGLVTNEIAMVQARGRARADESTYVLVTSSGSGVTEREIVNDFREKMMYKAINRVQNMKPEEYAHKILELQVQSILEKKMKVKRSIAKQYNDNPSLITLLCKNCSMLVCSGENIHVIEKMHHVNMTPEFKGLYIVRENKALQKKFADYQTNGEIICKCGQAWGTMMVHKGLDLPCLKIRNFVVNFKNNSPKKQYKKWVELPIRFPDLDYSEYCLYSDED
Put plainly: competition; EMSA, 50 pmol cold RNA vs biotin-IBR1-WT; EMSA: 20 mM HEPES pH 7.5, 150 mM NaCl, 1.5 mM MgCl2, 2 mM DTT, 2 mM ADPCP (so in the source), 10 min at room temperature, BisTris native gel. The conditions noted are these: protein: recombinant; tags: Flag; His. In general terms: In EMSA bound probe runs differently from free probe, usually more slowly.

For GUUCCAGCGCAGCCCUUA (ssRNA) [IBR1-M3], the binding result is on record as “no binding”.

B1: IBR1-M2 (ssRNA)
RNA: UGUAUUUUCUCCUUAUAAUCACUCCCUCCCGGGGCAUGUAAUUAAUUUCCUGAUGGAUUACUCACACGGUCUUGAAGAUGCAAUGUCAGCUAUUUAGGCUGUGCUAGGACUCAAUUACAACAACAUAUGCAUUAAGACAGGAACUGGCAAGCCGGGACUACAGCAACUACAGGGCUGGUGCUUCCCAACCGCUGGGCUAUAAUCUAUGAAACUGAGCCGGGAUCCAGCCAAUCAGUUAGCUAGCUCCUCAUAACAGGUCUAACUGGCUCUGGACAGCUAAGGGCUGCGCUGGAAC
Take B1: the binding result is “no binding”.
